In EP1327680B1 (CHUGAI SEIYAKU KABUSHIKI KAISHA, dated 2008):
One block for each molecule: values may come before it.

Experiments:
[1] = target: human TPO receptor (MPL) expressed on Ba/F3 cells (human) (UniProt P40238); experiment: cell-based or functional assay
[2] = target: T1, human TPO receptor (MPL) expressed on Ba/F3 cells (human, UniProt P40238 26-635); experiment: cell-based or functional assay
T1 sequence (looked up): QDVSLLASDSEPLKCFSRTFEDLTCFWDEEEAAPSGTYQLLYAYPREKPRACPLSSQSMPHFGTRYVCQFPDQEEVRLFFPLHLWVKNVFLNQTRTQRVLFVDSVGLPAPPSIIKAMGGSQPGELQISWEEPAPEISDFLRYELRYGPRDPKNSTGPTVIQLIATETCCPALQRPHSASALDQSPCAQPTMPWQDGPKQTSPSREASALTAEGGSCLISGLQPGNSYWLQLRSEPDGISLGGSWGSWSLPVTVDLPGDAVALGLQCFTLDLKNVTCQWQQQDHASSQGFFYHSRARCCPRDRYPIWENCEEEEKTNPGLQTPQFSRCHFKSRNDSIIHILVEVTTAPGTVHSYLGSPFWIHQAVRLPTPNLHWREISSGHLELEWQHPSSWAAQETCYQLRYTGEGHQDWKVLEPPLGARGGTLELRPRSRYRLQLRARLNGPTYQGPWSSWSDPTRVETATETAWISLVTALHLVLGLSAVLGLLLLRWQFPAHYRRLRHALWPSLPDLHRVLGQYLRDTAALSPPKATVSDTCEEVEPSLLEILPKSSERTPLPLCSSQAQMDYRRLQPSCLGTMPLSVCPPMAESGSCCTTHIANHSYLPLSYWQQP

ED50, agonist activity, proliferation of BaF/mpl cells (WST-8) [1]: 0.027 nM
Molecule: human TPO (R&D Systems) (from UniProt P40225 22-353) (ligand)

ED50, TPO-like agonist activity, proliferation of BaF/mpl cells (WST-8) [2]: 29 nM
B1: antibody 12B5 (IgG) (antibody, V domains shown)
VH: QVQLVQSGGGLVRPGGSLSLSCAVSGITLRTYGMHWVRQAPGKGLEWVAGISFDGRSEYYADSVQGRFTISRDSSKNTLYLQMNSLRAEDTAVYYCARGAHYGFDIWGQGTMVTVSS
VL: DIQMTQSPSTLSASIGDRVTITCRASEGIYHWLAWYQQKPGKAPKLLIYKASSLASGAPSRFSGSGSGTDFTLTISSLQPDDFATYYCQQYSNYPLTFGGGTKLEIK

ED50, TPO-like agonist activity, proliferation of BaF/mpl cells (WST-8) [2]: 34700 nM
B2: 12B5Fab fragment (Fab, V domains shown)
VH: B1 VH
VL: B1 VL

ED50, TPO-like agonist activity, proliferation of BaF/mpl cells (WST-8) [2]: 75 nM
B3: reconstructed 12B5 single chain Fv (sc12B5), culture supernatant of COS-7 cells (scFv)
scFv: QVQLVQSGGGLVRPGGSLSLSCAVSGITLRTYGMHWVRQAPGKGLEWVAGISFDGRSEYYADSVQGRFTISRDSSKNTLYLQMNSLRAEDTAVYYCARGAHYGFDIWGQGTMVTVSSGGGGSGGGGSGGGGSDIQMTQSPSTLSASIGDRVTITCRASEGIYHWLAWYQQKPGKAPKLLIYKASSLASGAPSRFSGSGSGTDFTLTISSLQPDDFATYYCQQYSNYPLTFGGGTKLEIKDYKDDDDK

ED50, TPO-like agonist activity, proliferation of BaF/mpl cells (WST-8) [2]: 10.1 nM
agonist activity, fold against monovalent sc12B5 [2]: ~400 fold
B4: sc12B5 dimer (scFv)
scFv: B3 scFv

ED50, TPO-like agonist activity, proliferation of BaF/mpl cells (WST-8) [2]: 4440 nM
B5: sc12B5 monomer (scFv)
scFv: B3 scFv
